The supplement of paper PMC7877785
± gives the uncertainty stated by the source.

Assay: self-splicing fitness, log relative to wild type (ln ratio); higher = more splicing; Tetrahymena group I intron in knt gene, E. coli kanamycin selection, DiMSum; sequences stand for … in CUCUCU…GGAGGGAAAAGUUAUCAGGCAUGCACCUGGUAGCUAGUCUUUAAACCAAUAGAUUGCAUCGGUUUAAAAGGCAAGACCGUCAAAUUGCGGGAAAGGGGUCAACAGCCGUUCAGUACCAAGUCUCAGGGGAAACUUUGAGAUGGCCUUGCAAAGGGUAUGGUAAUAAGCUGACGGACAUGGUCCUAACCACGCAGCCAAGUCCUAAGUCAACAGAUCUUCUGUUGAUAUGGAUGCAGUUCACAGACUAAAUGUCGGUCGGGGAAGAUGUAUUCUUCUCAUAAGAUAUAGUCGGACCUCUCCUUAAUGGGAGCUAGCGGAUGAAGUGAUGCAACACUGGAGCCGCUGGGAACUAAUUUGUAUGCGAAAGUAUAUUGAUUAGUUUUGGAGUACUCGUGGUCG
Outline: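 Six replicate transformations of E. coli BL21(DE3) with a pET-22b(+) library were grown overnight at 37°C or 30°C. The library randomised all eight P1ex-region intron nucleotides, the intron lying in the knt kanamycin-resistance gene, and plates were LB agar with or without 25 μg/mL kanamycin plus 100 μg/mL carbenicillin, 50 μM IPTG and 0.2% rhamnose. Pooled colonies were amplicon-sequenced on an Illumina HiSeq 2500, and fitness is the DiMSum error-weighted combination of wild-type-normalised replicate fold changes, kanamycin versus none.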

Row | Sequence | self-splicing fitness (ln) (30 °C) | self-splicing fitness (ln) (37 °C)
1 | CGCGAGCAAUAUUACGACUA | -2.42 ± 0.23 | -2.64 ± 0.25
2 | CGCGAGCAAUAUUACGAGUA | -3.55 ± 0.32 | -2.61 ± 0.27
3 | CGCGAGCAAUAUUACGAUUG | -1.3 ± 0.12 | -0.15 ± 0.12
4 | CGCGAGCAAUAUUACGCAAU | -4.68 ± 0.36 | -2.83 ± 0.29
5 | CGCGAGCAAUAUUACGCACU | -2.58 ± 0.13 | -1.51 ± 0.13
6 | CGCGAGCAAUAUUACGCUUU | -3.44 ± 0.33 | -0.916 ± 0.24
7 | CGCGAGCAAUAUUACGGACC |  | -1.47 ± 0.31
8 | CGCGAGCAAUAUUACGGACU | -1.82 ± 0.3 | -0.107 ± 0.26
9 | CGCGAGCAAUAUUACGGGAC | -3.07 ± 0.25 | -2.43 ± 0.45
10 | CGCGAGCAAUAUUACGGUUU | -4.02 ± 0.22 | -2.55 ± 0.18
11 | CGCGAGCAAUAUUACGUAUA | -3.38 ± 0.27 | -1.24 ± 0.24
12 | CGCGAGCAAUAUUACGUAUU | -3.09 ± 0.43 | -2.6 ± 0.39
13 | CGCGAGCAAUAUUACGUCAG | -1.19 ± 0.092 | -1.27 ± 0.11
14 | CGCGAGCAAUAUUACGUGUG | -4.51 ± 0.24 | -2.68 ± 0.13
15 | CGCUAGCAAUAUUACGAAGU | -3.12 ± 0.22 | -2.28 ± 0.31
16 | CGCUAGCAAUAUUACGAGAU | -3.86 ± 0.19 | -3.36 ± 0.23
17 | CGCUAGCAAUAUUACGAGCC | -1.23 ± 0.2 | -0.554 ± 0.17
18 | CGCUAGCAAUAUUACGAUCA | -0.592 ± 0.16 | -0.635 ± 0.13
19 | CGCUAGCAAUAUUACGAUUU | -3.41 ± 0.2 | -1.42 ± 0.12
20 | CGCUAGCAAUAUUACGCCGG | -3.06 ± 0.29 | -2.24 ± 0.45
21 | CGCUAGCAAUAUUACGCCUU | -2.49 ± 0.27 | -0.069 ± 0.19
22 | CGCUAGCAAUAUUACGCGAA |  | -2.95 ± 0.43
23 | CGCUAGCAAUAUUACGCGAU | -3.59 ± 0.19 | -2.25 ± 0.2
24 | CGCUAGCAAUAUUACGCUCG | -1.72 ± 0.22 | -1.02 ± 0.4
25 | CGCUAGCAAUAUUACGCUGA | -2.69 ± 0.2 | -2.26 ± 0.22

Row | Sequence | self-splicing fitness (ln) (30 °C) | self-splicing fitness (ln) (37 °C)
26 | CGCUAGCAAUAUUACGGCCC | -1.74 ± 0.19 | 0.036 ± 0.24
27 | CGCUAGCAAUAUUACGGCUC | -1.15 ± 0.16 | -0.2 ± 0.19
28 | CGCUAGCAAUAUUACGGGCU | -1.85 ± 0.17 | -1.33 ± 0.2
29 | CGCUAGCAAUAUUACGGUGC | -4.65 ± 0.34 | -3.09 ± 0.25
30 | CGCUAGCAAUAUUACGGUUC | -2.13 ± 0.21 | -0.893 ± 0.26
31 | CGCUAGCAAUAUUACGUCAC | -4.44 ± 0.42 | -3.4 ± 0.37
32 | CGCUAGCAAUAUUACGUCGA | -2.02 ± 0.35 | -1.78 ± 0.32
33 | CGCUAGCAAUAUUACGUCGU | -3.7 ± 0.37 | -2.87 ± 0.23
34 | CGGAAGCAAUAUUACGAACG | -3 ± 0.21 | -0.802 ± 0.24
35 | CGGAAGCAAUAUUACGAAGU |  | -2.81 ± 0.44
36 | CGGAAGCAAUAUUACGACAU | -3.637 ± 0.026 | -2.32 ± 0.038
37 | CGGAAGCAAUAUUACGACCG | -3.04 ± 0.35 | -2.26 ± 0.45
38 | CGGAAGCAAUAUUACGACGU | -2.55 ± 0.11 | -0.27 ± 0.12
39 | CGGAAGCAAUAUUACGAUCA | -0.698 ± 0.11 | -0.039 ± 0.1
40 | CGGAAGCAAUAUUACGAUUA | -1.17 ± 0.18 | -1.56 ± 0.16
41 | CGGAAGCAAUAUUACGCAAG | -0.584 ± 0.18 | -1.95 ± 0.43
42 | CGGAAGCAAUAUUACGCACC | -2.4 ± 0.32 | -1.19 ± 0.27
43 | CGGAAGCAAUAUUACGCCUU | -3.2 ± 0.17 | -3.48 ± 0.3
44 | CGGAAGCAAUAUUACGCGAA | -2.86 ± 0.27 | -1.46 ± 0.32
45 | CGGAAGCAAUAUUACGCGUA | -2.96 ± 0.29 | -2.47 ± 0.25
46 | CGGAAGCAAUAUUACGCUCA | -1.59 ± 0.17 | 0.105 ± 0.18
47 | CGGAAGCAAUAUUACGCUGC | -2.35 ± 0.41 | -1.78 ± 0.2
48 | CGGAAGCAAUAUUACGGAAC | -2.23 ± 0.34 | 
49 | CGGAAGCAAUAUUACGGGCG | -0.796 ± 0.091 | -0.481 ± 0.12
50 | CGGAAGCAAUAUUACGGUAG | -0.312 ± 0.072 | -0.214 ± 0.096

Row | Sequence | self-splicing fitness (ln) (30 °C) | self-splicing fitness (ln) (37 °C)
51 | CGGAAGCAAUAUUACGUAAC |  | -2.71 ± 0.27
52 | CGGAAGCAAUAUUACGUGGA | -2.79 ± 0.14 | -2.93 ± 0.21
53 | CGGCAGCAAUAUUACGAGAU | -1.99 ± 0.19 | -2.81 ± 0.27
54 | CGGCAGCAAUAUUACGAGUG | -1.03 ± 0.086 | 0.319 ± 0.1
55 | CGGCAGCAAUAUUACGCCGA | -2.87 ± 0.29 | -2.76 ± 0.34
56 | CGGCAGCAAUAUUACGCGGU | -4.26 ± 0.25 | -3.33 ± 0.19
57 | CGGCAGCAAUAUUACGCUGC | -3.47 ± 0.32 | -1.5 ± 0.19
58 | CGGCAGCAAUAUUACGGAGA | -1.63 ± 0.3 | -1.62 ± 0.29
59 | CGGCAGCAAUAUUACGGCCU | -1.23 ± 0.092 | -0.41 ± 0.088
60 | CGGCAGCAAUAUUACGGGAA | -2.49 ± 0.15 | -1.97 ± 0.16
61 | CGGCAGCAAUAUUACGGGCG | -1.85 ± 0.13 | -0.898 ± 0.14
62 | CGGCAGCAAUAUUACGGUUU | -2.16 ± 0.077 | -0.769 ± 0.089
63 | CGGCAGCAAUAUUACGUAAU | -3.38 ± 0.18 | -1.69 ± 0.22
64 | CGGCAGCAAUAUUACGUACC | -2.07 ± 0.19 | -1.61 ± 0.25
65 | CGGCAGCAAUAUUACGUCAG | -2.04 ± 0.099 | -0.000984 ± 0.1
66 | CGGCAGCAAUAUUACGUCUG | -2.32 ± 0.21 | -1.86 ± 0.19
67 | CGGCAGCAAUAUUACGUUCC | -2.59 ± 0.14 | -1.77 ± 0.21
68 | CGGGAGCAAUAUUACGAACA |  | -1.37 ± 0.22
69 | CGGGAGCAAUAUUACGAAUG | -3.6 ± 0.21 | -1.1 ± 0.15
70 | CGGGAGCAAUAUUACGACUG | -3.19 ± 0.22 | -1.55 ± 0.18
71 | CGGGAGCAAUAUUACGAUGC | -3.44 ± 0.2 | -2.91 ± 0.4
72 | CGGGAGCAAUAUUACGAUUA |  | -3.69 ± 0.42
73 | CGGGAGCAAUAUUACGCCUA | -2.84 ± 0.27 | -2.14 ± 0.19
74 | CGGGAGCAAUAUUACGCUUC |  | -2.21 ± 0.31
75 | CGGGAGCAAUAUUACGCUUG |  | -2.34 ± 0.31

Row | Sequence | self-splicing fitness (ln) (30 °C) | self-splicing fitness (ln) (37 °C)
76 | CGGGAGCAAUAUUACGUCUC | -2.33 ± 0.24 | 
77 | CGGGAGCAAUAUUACGUUUU | -2.19 ± 0.18 | -1.53 ± 0.27
78 | CGGUAGCAAUAUUACGAACA | -0.899 ± 0.16 | -0.395 ± 0.2
79 | CGGUAGCAAUAUUACGAAUA | -2.04 ± 0.35 | -1.67 ± 0.3
80 | CGGUAGCAAUAUUACGACAG | -0.475 ± 0.15 | 0.021 ± 0.16
81 | CGGUAGCAAUAUUACGACGU | -1.76 ± 0.13 | -1.08 ± 0.17
82 | CGGUAGCAAUAUUACGAGCA | -3.2 ± 0.31 | -0.781 ± 0.17
83 | CGGUAGCAAUAUUACGAGCU | -2.4 ± 0.15 | -1.89 ± 0.2
84 | CGGUAGCAAUAUUACGAGGC |  | -0.808 ± 0.29
85 | CGGUAGCAAUAUUACGAGUG | -0.671 ± 0.098 | 0.142 ± 0.17
86 | CGGUAGCAAUAUUACGAUCG | -2.68 ± 0.22 | -2.27 ± 0.32
87 | CGGUAGCAAUAUUACGAUUG | -0.538 ± 0.073 | -0.0537 ± 0.095
88 | CGGUAGCAAUAUUACGCAAC |  | -1.42 ± 0.35
89 | CGGUAGCAAUAUUACGCACU | -1.64 ± 0.26 | 0.00723 ± 0.27
90 | CGGUAGCAAUAUUACGCAUG | -0.808 ± 0.069 | 0.339 ± 0.08
91 | CGGUAGCAAUAUUACGCUGA | -2.23 ± 0.21 | -0.951 ± 0.2
92 | CGGUAGCAAUAUUACGGACU | -1.25 ± 0.16 | -0.871 ± 0.2
93 | CGGUAGCAAUAUUACGGCAG | -0.164 ± 0.13 | 0.767 ± 0.16
94 | CGGUAGCAAUAUUACGGCGU | -2.03 ± 0.14 | -0.594 ± 0.13
95 | CGGUAGCAAUAUUACGGGGG | -3.21 ± 0.22 | -3.01 ± 0.43
96 | CGGUAGCAAUAUUACGGGUA | -2.65 ± 0.21 | -3.01 ± 0.28
97 | CGGUAGCAAUAUUACGGUAU | -3.77 ± 0.22 | -2.31 ± 0.22
98 | CGGUAGCAAUAUUACGGUUG | -0.837 ± 0.069 | -0.0229 ± 0.093
99 | CGGUAGCAAUAUUACGUAAG | 0.00223 ± 0.095 | 0.329 ± 0.11
